# Assay results from patent US20130295073A1, “Use of pegylated recombinant human arginase for treatment of leukemia” (Bio-Cancer Treatment International Ltd., priority 2010, published 2013).
# How the values were obtained:
# HL60 cells [1] = experiment: Liver, spleen and sternum cytology of HL60-inoculated mice; type: in vivo; settings: HL60-inoculated NOD/SCIDS mice; BCT-100 50 U/mice i.p. weekly for 4 weeks; doxorubicin 3 mg/kg/day i.p.; FIG. 8
# Protocol: (§1) HL60 cells were injected to the tail of NOD/SCIDS mice. Treatment commenced on day 14. The animals were divided into 4 groups. The Doxorubicin group received treatment by doxorubicin, which was administrated at 3 mg/kg/day by intraperitoneal injection 3 times weekly for the first week, thereafter once per week for 4 weeks. The BCT-100 group received treatment by BCT-100, which was administrated at 50 U/mice by intraperitoneal injection weekly for 4 weeks. The combinational group received treatment of both Doxorubicin and BCT-100, administrated as described above. The control group received intraperitoneal injection of saline. […] In the control group, infiltration of leukemia in liver, spleen and sternum was observed.
# [2] = tested on: Kasumi-1a, ML2, HL60, K562, NB4, ALL-SIL and Jurkat; experiment: Combination effect of BCT-100 with Doxorubicin on leukemia cell lines; type: cell-based; settings: FIG. 7
# Source text: The combination effect of BCT-100 with Doxorubicin on various leukemia cell lines was studied. The leukemia cell lines tested were myeloid leukemia cell lines Kasumi-1a, ML2, HL60, K562, NB4 and lymphocytic leukemia cell lines ALL-SIL and Jurkat.
# HL60 cells [3] = experiment: Reorganization of promyelocytic leukemia nuclear bodies (immunostaining); type: cell-based; settings: HL60, anti-promyelocytic leukemia immunostaining, vs DMSO control; FIG. 5
# Kasumi-1a = experiment: IC50 of BCT-100 in leukemia cell lines; type: cell-based; settings: myeloid leukemia
# Source text: (§2) The inhibitory effect of BCT-100 in acute myeloid leukemia cells (Kasumi-1a, ML2, HL60, K562 and NB4) and T-cell leukemia cells (Jurkat, ALL-SIL, HPB-ALL and TALL-1) was studied.
# TALL-1 = experiment: IC50 of BCT-100 in leukemia cell lines; type: cell-based; settings: TALL-1, T-cell leukemia
# Source text: as §2
# ML2 = experiment: IC50 of BCT-100 in leukemia cell lines; type: cell-based; settings: ML2, myeloid leukemia
# Source text: as §2
# All-SIL = experiment: IC50 of BCT-100 in leukemia cell lines; type: cell-based; settings: T-cell leukemia
# Source text: as §2
# HL60 [4] = experiment: IC50 of BCT-100 in leukemia cell lines; type: cell-based; settings: HL60, myeloid leukemia
# Source text: as §2
# NB4 [5] = experiment: IC50 of BCT-100 in leukemia cell lines; type: cell-based; settings: NB4, myeloid leukemia
# Source text: as §2
# HPB-ALL = experiment: IC50 of BCT-100 in leukemia cell lines; type: cell-based; settings: T-cell leukemia
# Source text: as §2
# K562 = experiment: IC50 of BCT-100 in leukemia cell lines; type: cell-based; settings: K562, myeloid leukemia
# Source text: as §2
# Jurkat = experiment: IC50 of BCT-100 in leukemia cell lines; type: cell-based; settings: T-cell leukemia
# Source text: as §2
# U937 [6] = experiment: Induction of apoptosis in leukemia cells; type: cell-based; settings: U937, arsenic sensitive; FIG. 2
# Protocol: (§3) The effect of BCT-100 in inducing apoptosis in both arsenic sensitive (NB4 and U937) and arsenic resistant (HL60 and UF1) leukemia cell lines was tested. […] However, the apoptosis rate was low in HL60 and UF1 cells in the presence of arsenic, as these cell lines are arsenic resistant.
# HL60 [7] = experiment: Induction of apoptosis in leukemia cells; type: cell-based; settings: HL60, arsenic resistant; FIG. 2
# Protocol: as §3
# NB4 [8] = experiment: Induction of apoptosis in leukemia cells; type: cell-based; settings: NB4, arsenic sensitive; FIG. 2
# Protocol: as §3
# UF1 [9] = experiment: Induction of apoptosis in leukemia cells; type: cell-based; settings: UF1, arsenic resistant; FIG. 2
# Protocol: as §3
# Bax = experiment: Western blot of Bax expression in HL60; type: cell-based; settings: 8 hrs after treatment and afterwards, FIG. 3
# Protocol: (§4) Expression of Bax and pmTOR was assessed in leukemic cell line HL60 by western blotting with or without BCT-100 treatment using monoclonal antibodies against Bax and pmTOR respectively. The same blot was stripped and probed with anti-actin antibody for loading control. Apoptosis was determined by annexin V labeling. HL60 cells were cultured in medium with or without BCT-100 and the expression of annexin V were analyzed by flow-cytometry at 8, 16, 24, and 36 hrs after BCT-100 treatment.
# HL-60 = experiment: Survival of HL60-inoculated mice; type: in vivo; settings: HL-60-inoculated NOD/SCIDS mice; FIG. 9
# Protocol: as §1
# The effect of BCT-100 on the survival rate of HL-60-incoluated NOD/SCIDS mice was investigated. […] Thus BCT-100 can be administrated with Doxorubicin to treat leukemia, e.g., myeloid leukemia.
# U937 [10] = experiment: Cell viability in myelocytic leukemia cells; type: cell-based; settings: U937, arsenic sensitive; FIG. 1a/1b
# Source text: (§5) The effect of BCT-100 on arsenic sensitive myelocytic cell lines (NB4 and U937) as well as arsenic resistant myelocytic cell lines (HL60 and UF1) was investigated.
# (§6) Both the arsenic sensitive and resistant leukemia cells responded to the BCT-100 treatment.
# HL60 [11] = experiment: Cell viability in myelocytic leukemia cells; type: cell-based; settings: HL60, arsenic resistant; FIG. 1a/1b
# Source text: as §5, §6
# NB4 [12] = experiment: Cell viability in myelocytic leukemia cells; type: cell-based; settings: NB4, arsenic sensitive; FIG. 1a/1b
# Source text: as §5, §6
# UF1 [13] = experiment: Cell viability in myelocytic leukemia cells; type: cell-based; settings: UF1, arsenic resistant; FIG. 1a/1b
# Source text: as §5, §6
# NB4 cells = experiment: Granulocytic differentiation (CD11b expression, FACS); type: cell-based; settings: NB4, within 96-hour treatment; FIG. 4a, 4b
# Source text: (§7) The induction of granulocytic differentiation in NB4 and HL60 cells was studied. […] Specifically, decrease in nuclear to cytoplasmic ratio, appearance of cytoplasmic granules, chromatin condensation and loss of nucleoli were observed.
# HL60 cells [14] = experiment: as above; type: cell-based; settings: HL60, within 96-hour treatment; FIG. 4b
# Source text: as §7
# [15] = tested on: T-cell acute lymphocytic leukemia, acute myeloid leukemia, hepatocellular carcinoma and pancreatic cancer cell lines; experiment: IC50 of BCT-100 in various cancer cell lines; type: cell-based; settings: FIG. 6
# Source text: The IC50 values of BCT-100 in various cancer cell lines were investigated. The cancer cell lines being tested were T-cell acute lymphocytic leukemia, acute myeloid leukemia, hepatocellular carcinoma and pancreatic cancer.
# pmTOR = experiment: Western blot of pmTOR expression in HL60; type: cell-based; settings: FIG. 3
# Protocol: as §4
# [16] = Arginine depletion in preclinical study
# Source text: Arginase is a manganese-containing enzyme, catalyzing the conversion of arginine to ornithine and urea, the last step of the Urea Cycle.
molecule,measurement,setting,value
"COc1cccc2c1C(=O)c1c(O)c3c(c(O)c1C2=O)C[C@@](O)(C(=O)CO)C[C@@H]3O[C@H]1C[C@H](N)[C@H](O)[C@H](C)O1 [Doxorubicin, reference compound]","infiltration of leukemia in liver, spleen and sternum (cytology)",HL60 cells [1],Modest infiltration
same,therapeutic effect on leukemia cell lines,[2],effective in treating leukemia
"BCT-100: pegylated recombinant human arginase; pegylating agent may be mPEG-SPA; preparation disclosed in U.S. Ser. No. 10/518,223 (protein, UniProt P05089 1-322, looked up, PEGylated (mPEG-SPA)) Arginase-1: MSAKSRTIGIIGAPFSKGQPRGGVEEGPTVLRKAGLLEKLKEQECDVKDYGDLPFADIPNDSPFQIVKNPRSVGKASEQLAGKVAEVKKNGRISLVLGGDHSLAIGSISGHARVHPDLGVIWVDAHTDINTPLTTTSGNLHGQPVSFLLKELKGKIPDVPGFSWVTPCISAKDIVYIGLRDVDPGEHYILKTLGIKYFSMTEVDRLGIGKVMEETLSYLLGRKKRPIHLSFDVDGLDPSFTPATGTPVVGGLTYREGLYITEEIYKTGLLSGLDIMEVNPSLGKTPEEVTRTVNTAVAITLACFGLAREGNHKPIDYLNPPK",pattern of promyelocytic leukemia nuclear bodies,HL60 cells [3],the microspeckled pattern disappeared and the size and brightness of the promyelocytic leukemia bodies returned to normal
same,"infiltration of leukemia in liver, spleen and sternum (cytology)",HL60 cells [1],Modest infiltration
same,IC50,Kasumi-1a,65 mU/mL
same,IC50,TALL-1,100 mU/mL
same,IC50,ML2,65 mU/mL
same,IC50,All-SIL,120 mU/mL
same,IC50,HL60 [4],55 mU/mL
same,IC50,NB4 [5],60 mU/mL
same,IC50,HPB-ALL,110 mU/mL
same,IC50,K562,25 mU/mL
same,IC50,Jurkat,40 mU/mL
same,apoptosis rate,U937 [6],effective in inducing apoptosis
same,apoptosis rate,HL60 [7],effective in inducing apoptosis
same,apoptosis rate,NB4 [8],effective in inducing apoptosis
same,apoptosis rate,UF1 [9],effective in inducing apoptosis
same,Bax level,Bax,up-regulated
same,therapeutic effect on leukemia cell lines,[2],effective in treating leukemia
same,survival rate and survival days,HL-60,increased as compared to the control group
same,cell viability,U937 [10],dropped with increasing amount of BCT-100
same,cell viability,HL60 [11],dropped with increasing amount of BCT-100
same,cell viability,NB4 [12],dropped with increasing amount of BCT-100
same,cell viability,UF1 [13],dropped with increasing amount of BCT-100
same,granulocytic differentiation,NB4 cells,induced granulocytic differentiation
same,granulocytic differentiation,HL60 cells [14],induced granulocytic differentiation
same,effectiveness in cancer cell lines,"[15]; T-cell acute lymphocytic leukemia, acute myeloid leukemia, hepatocellular carcinoma and pancreatic cancer",effective
same,times more potent in leukemia and pancreatic cancer than in hepatocellular carcinoma,[15]; from IC50 values,6-10 times
same,protein level of pmTOR,pmTOR,down-regulated
same,arginine depletion,[16],efficacious in inducing arginine depletion in dose-dependent manner
